Test: soluble on expression in E. coli; label from the status in PepcDB or PDB records

Soluble on expression in E. coli, soluble:
GPGSMSSLTEGARASHTSSKEAGYYRLQSPKHINIDPCVYEIRTMRGSGPGGQGTNSSSNKVELRADMELLSEFFDEELLAALRRHEAGGALTNDGTTIVVSCHEHRSALQNKEGCLRKLQTLLHKASWVPPAEAGLVERPSFIVTEQKVRRRKKSNMNRMTRSARSGSW
MGSSHHHHHHSSGLVPRGSHMEHAFTPLEPLLPTGNLKYCLVVLNQPLDARFRHLWKKALLRACADGGANHLYDLTEGERESFLPEFVSGDFDSIRPEVKEYYTKKGCDLISTPDQDHTDFTKCLQVLQRKIEEKELQVDVIVTLGGLGGRFDQIMASVNTLFQATHITPVPIIIIQKDSLIYLLQPGKHRLHVDTGMEGSWCGLIPVGQPCNQVTTTGLKWNLTNDVLGFGTLVSTSNTYDGSGLVTVETDHPLLWTMAIKS
EAYLGVMINDLVTKEISDPYRLLTSRAEHRLWLRNDNLQERLIEKSRALGLVEADVYANYLEQQQKKKQLIDYLQTTTVGQIAALKLNFKNTAQTLFDFTKRAEIKLVDLVQLLPKRFDLDVQSLNQIDIDIKYAGYIKKSEKYFKSLNNLSSVKIPLKLNYHKVPNLASEAIVKLSKIRPTDLSVASQVAGINFNDILAIKHFLDNHE
MGSSHHHHHHSSGLVPRGSHMFKPKKKLGQCFLIDKNFVNKAVESANLTKDDVVLEIGLGKGILTEELAKNAKKVYVIEIDKSLEPYANKLKELYNNIEIIWGDALKVDLNKLDFNKVVANLPYQISSPITFKLIKRGFDLAVLMYQYEFAKRMVAAAGTKDYGRLSVAVQSRADVEIVAKVPPSAFYPKPKVYSAIVKIKPNKGKYHIENENFFDDFLRAIFQHRNKSVRKALIDSSKELNYNKDEMKKILEDFLNTNSEIKNLINEKVFKLSVKDIVNLSNEFYRFLQNRGRL
MSLGDKPLQTVLHDEHYGGLDFSLGDSKYSGELEYNKSYMVNFSVNLPAEGSVKVAKAYVYWVWSKKDLEGIYPQFNASIINSETTAPLPKGHMYTDTKGFVSRYDYFSGMNTYDLSGKISKSGNYSISLVNTDKNGSTFCVQGIGLLLVYEDPKSPAIEYWINEGCDMLYADYGITPEVATTTTYFKGDIDPDNVTDARLITVSPSGGYSSGREARNKLFFNEETRSIPVLGDIVQLLFGSGKVWENVYQTNETVQIALDEKPVADYLEPTENFASIQDNGDYLLATNAILVLKFKGPESSETKGSEGHHHHHH
MAHHHHHHMPSSPFPTLPTRATQHHHHCSHTRVHQICPAVPSLSALSNILTVSAMSAKTAAAPSERSFVDRFVRSHAGAATAAGILEIGFFHPFDTIAKRLMANKGSIMRGSTGET
MSLLRLHDGDLLFVTAARTGLSGAIDDATATQGAPSFDHVGLVAHDGRARVVLHADEEGSRQQPLADFIRQARAKQRQIFVYRLNAAQRAAIPDAIAQARRMLGKPYNLTYVQDDNSYYCSDFIERAFRAHQVFALQPMNFKNPQSGQMSAYWTEFYRSKGMDVPQGLPGTNPNDMARAPALQALGPLDEGHHHHHH
MQSNTPQPNPAPFLKAGETVVLFDGVCKLCNGWAKFIIRHDRRQRIRLATVQSPEGQALLEWAGLPLDRFDTMAAVTGDRLYVRSEAFFVALSDFPAPWRWLRVLRFFPAVIRDWLYDRIALNRYRLFGRYDSCLLPTPDHERRFLKASPLEHHHHHH
MSLATFEKQKIEQAIGSIQGALGVLEKGQMTEIMPPKRIQALPIQQNVDTPEAINAFASMITEYSEMTKISDGPAVKMEEAEDGFILSIPSELLFESGSATITNKEGILFLKRTALEINKLSNDMHIKVIGHTDNDRLRPTATYKDNWELSIARGVNVAKMLLEERVNPARISAGGNGEFDPVASNATPEGKAKNRRVDLYFFSVSKNEEEIKKSQKNSEGHHHHHH
MSLRKHCIAIGGGGWMMGENPSPLYQYILSLSGKENPNICFLPTATGDADEVIERFYNAKLSENVTHFPLFKFDAGWKETLFEQDIIYVGGGNTRSMLAIWREWGIDRILKQCYEQGIIICGMSAGAICWFEFAVTDSDPEAYQVMRCLGLIDGLAAAHFSHVGEKFEVFQAFARSQPSITCYGIHDYAALHFVDGKLLATVTSFPDAGVLVKTGNDENILRGEGHHHHHH
MSLMNKSQQVQTITLAAAQQMAAAVEKKATEINVAVVFSVVDRGGNTLLIQRMDEAFVSSCDISLNKAWSACSLKQGTHEITSAVQPGQSLYGLQLTNQQRIIIFGGGLPVIFNEQVIGAVGVSGGTVEQDQLLAQCALDCFSALEGGSHHHHHH
SLLCIALALGILVKYQNSQDVSSVKPDYFIDKQEDLISLNKDHYEIGIFQENEFDNNKSVSILEQKIQEIDDLNTSLNEQNLSSVEQNLSLEQNQSLEQNFILKDTNLTQDQNLTFNEDIHLNKISKKPKLAIIIDDMANASQVRGLKALNLKLNPSFFPPDKNHSETPKLALKFDFYMVHLPLAAINYNKPELDTLNPNDSKERIFKKIKQIKKDFKDLRYINNHTGSLFTSNEEAMRKLYEVLKNQNIFFVDSKTIGNSKANKIAKELNVPYIQRDVFLDNEDDVNYVKKQLESAVKLTQKKGFVIAIGHPRKNTFKALEQSKDLLKSVDLVYLSEIYGK
HHHHHHMASSAQDGNNPLFSPYKMGKFNLSHRVVLAPMTRCRALNNIPQAALGEYYEQRATAGGFLITEGTMISPTSAGFPHVPGIFTKEQVREWKKIVDVVHAKGAVIFCQLWHVGRASHEVYQPAGAAPISSTEKPISNRWRILMPDGTHGIYPKPRAIGTYEISQVVEDYRRSALNAIEAGFDGIEIHGAHGYLIDQFLKDGINDRTDEYGGSLANRCKFITQVVQAVVSAIGADRVGVRVSPAIDHLDAMDSNPLSLGLAVVERLNKIQLHSGSKLAYLHVTQPRYVAYGQTEAGRLGSEEEEARLMRTLRNAYQGTFICSGGYTRELGIEAVAQGDADLVSYGRLFISNPDLVMRIKLNAPLNKFNRKTFYTQDPVVGYTDYPFLQGNGSNGPLSRL

Soluble on expression in E. coli, not soluble:
MRLSRSSHHKTLDEYDFSFQPDLDPRKVRDLATLSFVEGRANAALLGVLVADEVGYQPLERAEARLVFQVISKRYEKGSIILASNKTFSEWGQVGPGFGDEVLATALLGRLLDHCDVISINGPGYRLRNRLKAIERENDVALEHHHHHH
MKEKILLGGYTKRVSKGVYSVLLDTKAAELSSLNEVAAVQNPTYITLDEKGHLYTCAADSNGGGIAAFDFDGETATHLGNVTTTGAPLCYVAVDEARQLVYGANYHLGEVRVYKIQANGSLRLTDTVKHTGSGPRPEQASSHVHYSDLTPDGRLVTCDLGTDEVTVYDVIGEGKLNIATIYRAEKGMGARHITFHPNGKIAYLVGELNSTIEVLSYNEEKGRFARLQTISTLPEDYHGANGVAAIRISSDGKFLYTSNRGHDSLTTYKVSPLGTKLETIGWTNTEGHIPRDFNFNKTEDYIIVAHQESDNLSLFLRDKKTGTLTLEQKDFYAPEITCVLPLLEHHHHHH
MSVLRRLTWLAFPLLSMAFNVQANTAPAQLNKAELEQRFAKLGLQVEEIKTSDINGLLEVQTSGGVLFSSPDGEHFIAGTLYALDGNGGYVDVLAKRQAPLNAKKIAALQDSMIEFKAPNEKYAITVFTDITCGYCVRLHSQIKEYNDLGITVRYLAYPRQGPQGQVADQMAAIWCSNDPKAAMHDAKVNRKTITADKDIAQCQKTIAQHYMLGHELGISGTPAIFLPNGEMVGGYLPAPQLLQRLQATQ
KCLVLDLDGTLWGGVVGEDGIEGIKLGPTGSGKPFYEFQKYIKSLFKKGVILAVNSKNNYDDAMEVIRKHPYMVLREEDFADFEINWQDKASNMRAIAKKLNIGIDSMVFMDDD
MGSDKIHHHHHHMRNASIEQYDATPRAVVAMGTDYPDGYLLPRHRHRRAQLLYGASGVMQVRTGDAGWVVPPQRAVWIPPGVEHEVRMLGVSTRSLYIEPGSAMAMPAHCQVLAVSPLLRQLLLAAVDMPLEYDTEGRDGALATLLLHELAAAETLPLHVPLPPEPRWLALCEAFLVEPDIRASAERWAGLLHTSLRSFNRTFRRYTGLSFGAWKQRACVVQALARLAGGETVTAIALDCGYQSPAAFSTMFRRVLGQPPSAFQAGALRSPGGP
MIDCLVMAGGQGARMGFREKPLLSVCGQPMLLRVLSALRMACRRIAIVYSRHTPGVKRLCLSGALGAVECIEGPGSYVKDLRLGFSHISTPLLVAPADMPFLNPHHLNLFIDRALADGASIVNLSLRGRGLTGLSVFKHHRGWWRDVETNGCWALDVDTWEDFRRAGELCGGECTGEGLRLELLEHHHHHH
MFRVQTLNQIAEKGLQVFTEERYEVGDRINHPDGILLRSYSLHQEEFSKDLKAIARAGAGVNNIPVERCTEKGIVVFNTPGANANAVKELIIASLIMSSRNIINGVSWTKNLEGEEVPQLVESGKKQFVGSEIAGKRLGVIGLGAIGALVANDALALGMDVIGYDPYISVETAWRLSTHVQRAFSLDEIFATCDYITLHIPLTNQTKGIIGEHAVEKMKRGMRLFNFSRGELVDEKVLQKALEEDIITHYVTDFPNENVIKMKNVTATPHLGASTSESEENCAVMAARQLREYLETGNIRNSVNYPNVELPYIGKKRITIMHQNVPNMVGQITGCLAEHHINIADMTNRSKHSWAYTMIDIDNGIDDIIKENIVENISKITGVVAVRMIV
MGNDKRSQIFTLSRYAGILRRCLKENAMSAQKPGLHPRNRHHSRYDLATLCQVNPELRQFLTLTPAGEQSVDFANPLAVKALNKALLAHFYAVANWDIPDGFLCPPVPGRADYIHHLADLLAEASGTIPANASILDIGVGANCIYPLIGVHEYGWRFTGSETSSQALSSAQAIISSNPGLNRAIRLRRQKESGAIFNGIIHKNEQYDATLCNPPFHDSAAAARAGSERKRRNLGLNKDDALNFGGQQQELWCEGGEVTFIKKMIEESKGFAKQVMWFTSLVSRGENLPPLYRALTDVGAVKVVKKEMAQGQKQSRFIAWTFMNDEQRRRFVNRQRLEHHHHHH
AIAASSTDQNLMDLSDKDTREKLSFWDRRVDPMAPLTDRQTDSILELRAAAEETLLPAELPIEDICSLSSRSLRSSFTAALPESTEEVLLQGFQMLELHNHRIETAQQFFSWFSKLQVQMDQDEASKYRKTRDVLNGYQEQCDAILNDVNTALDHLDSLQKQYLFVSTKTGTLHEACEQLLKEQSELVDLAESIQEKLSYFNELENINTKLNSPTLSVNSEGFVPMLSKLDECIEYVSSHPNFKDYPVYLTKFKQCLSKAMQLIKSHTVNTLQNLTGQLSKRDPLGAPSA
MSWLKEVIGTEKAVIAMCHLRALPGDPSFDAQLGMNWVIDKAWDDLMALQNGGVDAVMFSNEFSLPYLTKVRPETTAAMARIIGQLMSDIRIPFGVNVLWDPVASFDLAMATGAKFIREIFTGAYASDFGVWDTNVGETIRHQHRIGAGEVKTLFNIVPEAAVYLGNRDICSIAKSTVFNNHPDALCVSGLTAGTRTDSALLKRVKETVPDTVVLANTGVCLENVEEQLSIADGCVTATTFKKDGVFANFVDQARVSQFMEKVHHIRR
MMKDKHGAMNAERRGMGEQRLAERMAELERRLKEVEAENIVLKELAYQSAKRYEQLKQLAKENDELRRQLLQSPWSEKTDKMDEDERPDSWFFRTLRQENAIMPHPERNEK

From the DeepSol protein solubility set
